This is an account of results in US20100331255A1 (WAKE FOREST UNIVERSITY HEALTH SCIENCES, published 2010).

In the experiment the target is T1, Rat PDI (protein disulfide isomerase) in extracted rat liver microsomal membranes (rat, UniProt P04785 20-509).
T1 construct: Endogenous protein solubilised from extracted rat liver microsomal membranes; also called 55 kDa PDI protein
T1 sequence (looked up): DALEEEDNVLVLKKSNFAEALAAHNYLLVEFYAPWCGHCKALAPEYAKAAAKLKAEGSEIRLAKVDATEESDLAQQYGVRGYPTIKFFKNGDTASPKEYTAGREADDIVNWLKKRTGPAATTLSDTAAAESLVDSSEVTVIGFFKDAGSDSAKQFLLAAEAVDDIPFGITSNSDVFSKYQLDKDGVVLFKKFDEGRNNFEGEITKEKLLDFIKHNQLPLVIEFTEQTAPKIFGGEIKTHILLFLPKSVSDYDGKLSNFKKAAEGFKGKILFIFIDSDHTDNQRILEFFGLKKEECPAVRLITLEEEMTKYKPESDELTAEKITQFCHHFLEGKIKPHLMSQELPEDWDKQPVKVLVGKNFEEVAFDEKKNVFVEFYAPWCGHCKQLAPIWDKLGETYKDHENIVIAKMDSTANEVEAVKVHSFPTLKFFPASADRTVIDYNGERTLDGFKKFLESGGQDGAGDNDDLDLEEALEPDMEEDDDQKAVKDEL
Put plainly: immunoprecipitation with rat VKORC1 antibodies from solubilised rat liver microsomal membranes, Western blot with PDI monoclonal antibody. From the text: Lane St. has standard proteins. […] Lanes D and E show Western blots of extracted human and rat liver microsomes respectively with peptide antibodies raised against an epitope on human VKORC1 (see Experimental Procedures). […] The sequence of precipitating and first antibody is shown. Rat PDI and the heavy (HIgG) and light (LIgG) chains of mouse IgG are visible. Panel II, lanes G.Ox. and G.Red show immunoprecipitates obtained with rat VKORC1 antibodies and their Western blots developed with the mouse PDI monoclonal antibody as the first antibody and horse radish conjugated goat anti-mouse IgG as the second antibody. The sequence of precipitating and first antibody is shown. Preparation of the samples before SDS-PAGE in 8-12% CRITERION gels is described in detail in Experimental Procedures. The samples in G.Ox and G.Red were not reduced and reduced with ME respectively prior to electrophoresis.
Extracted microsomal membranes were resuspended in buffer D (250 mM sodium phosphate, 0.5 M KCl, 20% glycerol, 0.75% CHAPS, pH 7.85 containing 10 μg/ml of the Sigma Protease Inhibitor Cocktail for use with mammalian cell and tissue extracts) using a Dounce homogenizer. For blocking of free thiol groups, 20 mg NEM was added per ml of buffer D before homogenizing. The protein concentration was 6.8 mg/ml. […]
Background: Liver microsomes are a subcellular fraction often used to study metabolism.

B1: Rat VKORC1 in extracted rat liver microsomal membranes (enzyme, UniProt Q6TEK4 1-161, looked up)
chain: MGTTWRSPGRLRLALCLAGLALSLYALHVKAARARNEDYRALCDVGTAISCSRVFSSRWGRGFGLVEHVLGADSILNQSNSIFGCMFYTIQLLLGCLRGRWASILLILSSLVSVAGSLYLAWILFFVLYDFCIVCITTYAINAGLMLLSFQKVPEHKVKKP
notes: Endogenous protein
As for B1, the binding result is recorded as “binds”.
